Changes are numbered by the printed parent chain. Read-outs that look alike come from different tables or passages of the source.
Key:
[1] = target: T1, human TIGIT (T cell immunoreceptor with Ig and ITIM domains), expressed on cells (human, UniProt Q495A1 22-244); experiment: cell-based or functional assay
T1 sequence: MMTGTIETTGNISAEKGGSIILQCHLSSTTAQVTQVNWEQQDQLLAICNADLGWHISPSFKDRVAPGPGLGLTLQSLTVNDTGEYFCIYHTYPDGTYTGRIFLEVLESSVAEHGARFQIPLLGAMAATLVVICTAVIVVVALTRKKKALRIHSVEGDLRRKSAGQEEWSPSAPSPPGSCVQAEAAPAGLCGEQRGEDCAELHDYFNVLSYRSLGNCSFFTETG

[2] = target: T2, recombinant human TIGIT extracellular domain (ECD) (human, UniProt Q495A1 22-138); experiment: blocking ELISA, VHH clone against PVR binding to h-TIGIT
T2 construct: Bought protein (Arco Bio); also called h-TIGIT ECD; h-TIGIT
T2 sequence: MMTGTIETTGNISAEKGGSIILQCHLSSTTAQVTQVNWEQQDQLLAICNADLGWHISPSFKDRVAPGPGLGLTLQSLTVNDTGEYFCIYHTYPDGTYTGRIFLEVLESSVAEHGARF

[3] = target: T1, human TIGIT (T cell immunoreceptor with …); experiment: flow cytometry, whole cell binding to Jurkat cells stably expressing human TIGIT; Alexa Fluor 488 anti-human IgG Fc secondary antibody
Excerpt: FIGS. 1A-1C depict whole cell binding of representative VHH bivalent antibodies to human TIGIT determined by flowcytometry assays. […] Y axis represents Mean Fluorescence Intensity of AlexaFlour 488. X axis represents antibody concentrations in nanomolar. […] FIG. 1C is a schematic of the structure of a TIGIT VHH bivalent antibody.
(§1) Jurkat cells stably expressing human TIGIT and NFAT reporter gene were established. Specifically, Jurkat cells were transfected with human TIGIT expression vector by electroporation, and cells stably expressing human TIGIT were selected by 1 μg/ml puromycin during cell culture. Representative antibody clones were incubated at different concentrations with h-TIGIT stably expressing Jurkat cells (0.2×10^6/ml) in 100 μl/well in 96-well plate in FACS buffer (PBS with 1.5% FBS) for 30 min. After washing, Alexaflour 488 conjugated anti-human IgG Fc secondary antibody (Alexa Fluor® 488 AffiniPure Goat Anti-Human IgG, Fcγ fragment specific, Jackson labs, 1:500 dilution) was added and incubated for 30 min. After washing, mean fluorescence intensity was measured using CytoFlex (Beckman Coulter) by gating live cell population. Binding affinity was calculated using GraphPad Prism.

[4] = target: T1, human TIGIT (T cell immunoreceptor with …); experiment: flow cytometry, whole cell binding to Jurkat cells stably expressing human TIGIT; anti-human IgG Fc AlexaFluor488
Experimental: Y axis is values of Mean Fluorescence Intensity of AlexaFlour 488. X axis is values of antibody concentrations in nanomolar.
The binding affinities of the humanized bivalent antibodies to human TIGIT were determined by whole cell binding to h-TIGIT stably expressed on Jurkat cells. Briefly, antibodies were incubated with h-TIGIT transfected Jurkat cells (0.2×10⁶/well in 100 μl) for 30 min in FACS buffer. The cells were washed once, then incubated with anti-human IgG Fc AlexaFluor488 (1:500).

[5] = target: T1, human TIGIT (T cell immunoreceptor with …); experiment: cell-based or functional assay; remark: listed apart in the source
[6] = target: T1, human TIGIT (T cell immunoreceptor with …); experiment: cell-based or functional assay; remark: listed apart in the source
[7] = target: T1, human TIGIT (T cell immunoreceptor with …); experiment: whole cell binding assays, n=3 (FIG. 10A)
Experimental: as §1

[8] = target: T1, human TIGIT (T cell immunoreceptor with …); experiment: cell-based or functional assay; remark: listed apart in the source
[9] = target: T1, human TIGIT (T cell immunoreceptor with …); experiment: cell-based or functional assay; remark: listed apart in the source
[10] = target: T1, human TIGIT (T cell immunoreceptor with …); experiment: cell-based or functional assay; remark: listed apart in the source
[11] = target: T1, human TIGIT (T cell immunoreceptor with …); experiment: cell-based or functional assay; remark: listed apart in the source

B1: 3G6 bivalent VHH antibody (Fc fusion)
VHH: QVQLVESGGGLVQAGGSLSLSCAASGSIFGISVMGWYRQAPGEQRDLVATLTRAGLTTYGDSVKGRFSISRDSAKNTVYLQMNNLKPEDTAVYYCHANIMESAASTFGRYWGQGTQVTVSS
EC50 (read off the curve), NFAT luciferase reporter, TIGIT blockade [1]: ~3 nM

B2: 3G6 VHH (VHH)
VHH: B1 VHH
notes: Tested as VHH in SS320 culture supernatant
% inhibition of PVR binding to h-TIGIT [2]: > 90%

B3: 3G7 bivalent VHH antibody (Fc fusion)
VHH: QVQLVESGGGLVQAGDSLRLSCEASGRTLSTYTMGWFRRAPGKEREFVGLAWPSPSTYVVDSVKGRFTISRDNAKNTIYLQMNSLKPEDTAIYYCAADYKSLTQSWLNAALDYWGQGTQVTVSS
notes: Bivalent VHH-CH2-CH3, ExpiCHO, Protein A purified
EC50 (read off the curve), NFAT luciferase reporter, TIGIT blockade [1]: ~1 nM
EC50 (read off the curve) [3]: ~0.3 nM

B4: 3G7 VHH (VHH)
VHH: B3 VHH
notes: as for B2
% inhibition of PVR binding to h-TIGIT [2]: > 90%

B5: 3F10 bivalent VHH antibody (Fc fusion)
VHH: QVQLVESGGGLVQAGGSLRLSCASSEHTFSNFPMGWFRQAPGKERNVVAAIDSSGRLTYYADSVKGRFTISKDNAKSTVYLQMNSLKSEDTARYYCAARTGGVGYYSRSSFYNYWGQGTLVTVSS
EC50 (read off the curve), NFAT luciferase reporter, TIGIT blockade [1]: ~0.3 nM

B6: 3F10 VHH (VHH)
VHH: B5 VHH
notes: as for B2
% inhibition of PVR binding to h-TIGIT [2]: > 90%

B7: 1G1-F-G-ERES humanized bivalent antibody (Fc fusion)
VHH: QVQLVESGGGVVQPGRSLRLSCAASGPSFSSYPMGWFRQGPGKERESVAAISSDGRFTYYADSVKGRFTISRDNSKNTLYLQMNSLRAEDTAVYYCAARDSGSGYYSRAQWYDYWGQGTLVTVSS
notes: Humanized on germline IGHV-3-30*01
EC50 (read off the curve) [4]: ~0.2 nM
EC50 (read off the curve), NFAT luciferase reporter, TIGIT blockade [5]: 1 to 1.6 nM

B8: Bivalent 2A3 antibody (2A3-Fc) (Fc fusion)
chain: B7 VHH with P27G, G40A, G55M, S103V
notes: ExpiCHO, protein A purified; also called 2A3 clone; parental 2A3-Fc; not shown: human IgG1 CH2 and CH3 domains
EC50 (read off the curve), NFAT luciferase reporter, TIGIT blockade [6]: ~1 nM
EC50 [7]: 0.32 nM
EC50, NFAT luciferase reporter assay (n=3) [8]: 0.48 nM
EC50 (read off the curve), NFAT luciferase reporter, TIGIT blockade [9]: ~0.7 nM

B9: 1C12-EREF humanized bivalent antibody (Fc fusion)
VHH: QVQLVESGGGVVQPGRSLRLSCAASSRIFSRYGMGWFRQAPGKEREFVAAISWNGASTTYTDSVKGRFTISRDNSKNTLYLQMNSLRAEDTAVYYCAADPWGAVKLGTAEYEYWGQGTQVTVSS
EC50 (read off the curve), NFAT luciferase reporter, TIGIT blockade [10]: ~2 nM

B10: 1C12-chimeric (1C12 bivalent VHH antibody) (Fc fusion, not shown: small tags and cut ends)
chain: B9 VHH with V11L, P14T, R16D, N74S, S75A, K76E, L79T, M83I, A88P
EC50 (read off the curve), NFAT luciferase reporter, TIGIT blockade [10]: ~0.7 nM
EC50 (read off the curve), NFAT luciferase reporter, TIGIT blockade [5]: ~0.8 nM
EC50 (read off the curve), NFAT luciferase reporter, TIGIT blockade [11]: ~1 nM

B11: 1C12-GLEW humanized bivalent antibody (Fc fusion)
VHH: B9 VHH with E44G, R45L, F47W
EC50 (read off the curve), NFAT luciferase reporter, TIGIT blockade [10]: ~2 nM

B12: 1C12-EREW humanized bivalent antibody (Fc fusion)
VHH: B9 VHH with F47W
EC50 (read off the curve), NFAT luciferase reporter, TIGIT blockade [10]: ~3 nM

B13: 15A5 VHH (VHH)
VHH: QVQLVESGGGLVQAGGSLRLSCAASERTFSSFAMGWFRQAPGKEREVVAAIDPSGRYIYYKDSVKGRFTMSRDNAKSTVYLQMNSLKPDDTARYYCAARIRGEGYYTRSSFYHYWGQGTQVTVSS
notes: as for B2
% inhibition of PVR binding to h-TIGIT [2]: > 90%

B14: 2B10 bivalent VHH antibody (Fc fusion)
VHH: QVKLEESGGGLVQTGDSLRLSCAASSRIFRRYAMGWFRQAPGKEREFVAAITWSGASTTYTDSVKGRFTISRDSAENTTYLQMTSLRPEDTAVYYCAADPWGSVIVGTAEYEYWGQGTLVTVSS
EC50 (read off the curve), NFAT luciferase reporter, TIGIT blockade [1]: ~0.7 nM

B15: 2B10 VHH (VHH)
VHH: B14 VHH
notes: as for B2
% inhibition of PVR binding to h-TIGIT [2]: > 90%

B16: 1C12 VHH (VHH)
VHH: B9 VHH with V11L, P14T, R16D, N74S, S75A, K76E, L79T, M83I, A88P
notes: as for B2
% inhibition of PVR binding to h-TIGIT [2]: > 90%

B17: 2B7 bivalent VHH antibody (Fc fusion)
VHH: QVQLVESGGGLVQAGGSLRLACAASGRTFSSYPMGWFRQGPGKERESVAAISSDGRFTYYAASVKGRFTISKDNAKSAAFLQMNSLKPEDTAVYYCAARDSGSGYYSRAQWYDYWGQGTQVTVSS
notes: as for B3
EC50 (read off the curve) [3]: ~0.2 nM
EC50 (read off the curve), NFAT luciferase reporter, TIGIT blockade [11]: ~1 nM

B18: 13H11 VHH (VHH)
VHH: B17 VHH with A21S, R27L, S31M, P33A
notes: as for B2
% inhibition of PVR binding to h-TIGIT [2]: > 90%

B19: 2B7 VHH (VHH)
VHH: B17 VHH
notes: as for B2
% inhibition of PVR binding to h-TIGIT [2]: > 90%

B20: 1G1-chimeric (1G1 bivalent VHH antibody) (Fc fusion)
chain: B17 VHH with G16D, A21S, A23V, R27P, T28S, Q120L
notes: Llama VHH of 1G1 with human IgG1 CH2 and CH3 domains; also called chimeric clone; not shown: human IgG1 CH2 and CH3 domains
EC50 (read off the curve) [3]: ~0.1 nM
EC50 (read off the curve) [4]: ~0.08 nM
EC50 (read off the curve), NFAT luciferase reporter, TIGIT blockade [5]: ~0.7 nM
EC50 (read off the curve), NFAT luciferase reporter, TIGIT blockade [11]: ~1 nM

B21: 1G1 VHH (VHH)
VHH: B17 VHH with G16D, A21S, A23V, R27P, T28S, Q120L
notes: as for B2
% inhibition of PVR binding to h-TIGIT [2]: > 90%

From US20230134580A1 (SHANGHAI HENLIUS BIOTECH, published 2023)
